The source of these data is publication doi:10.1101/405654.

This assay deals with GMPCPP-stabilised, rhodamine labelled microtubules (porcine brain tubulin) (porcine (purified from porcine brain)) (UniProt P02550). Description: single-molecule TIRF microscopy.
Chain of UniProt P02550 (P02550 whole entry, the tested form may be a part): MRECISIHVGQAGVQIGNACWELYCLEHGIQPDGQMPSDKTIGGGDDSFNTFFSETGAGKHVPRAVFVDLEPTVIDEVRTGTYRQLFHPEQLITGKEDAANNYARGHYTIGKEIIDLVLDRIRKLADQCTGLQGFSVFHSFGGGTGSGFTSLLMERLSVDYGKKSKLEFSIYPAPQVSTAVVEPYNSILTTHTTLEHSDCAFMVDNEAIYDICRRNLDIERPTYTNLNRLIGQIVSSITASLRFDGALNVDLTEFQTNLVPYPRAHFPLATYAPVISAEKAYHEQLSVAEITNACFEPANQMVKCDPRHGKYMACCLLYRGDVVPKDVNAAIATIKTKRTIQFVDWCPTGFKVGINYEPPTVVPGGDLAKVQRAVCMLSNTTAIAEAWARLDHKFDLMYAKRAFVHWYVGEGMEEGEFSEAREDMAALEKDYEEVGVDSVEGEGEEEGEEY
With “Rat kinesin-1 rKin430-GFP-h6 S266A (domain or fragment)”, the microtubule end residence time amounted to 0.8 s. With “Rat kinesin-1 rKin430-GFP-h6 N263E (domain or fragment)”, the microtubule end residence time was 0.98 s.

“Rat kinesin-1 rKin430-GFP-h6, wild type (domain or fragment)” gave a microtubule end residence time of 0.35 s. In the case of “Rat kinesin-1 rKin430-GFP-h6 G262K (domain or fragment)”, the microtubule end residence time worked out at 0.74 s.

“Rat kinesin-1 rKin430-GFP-h6 S266R (domain or fragment)” registered a microtubule end residence time of 1.39 s. Substance “Rat kinesin-1 rKin430-GFP-h6 triple mutant (G262K, N263E, S266R) (domain or fragment)” yielded a microtubule end residence time of 0.97 s.
